The MegaScale stability set (Tsuboyama et al. 2023)

B1: EEHEE_rd4_0003 (parent)
chain: KKVTINGVEIKFNNPEEAVKFALELAKRLNLRIEFHGDQIKIE

Variants of: B1
Assay: folding stability dG (cDNA display proteolysis); higher = more stable
Settings: PBS, room temperature

Folding stability dG [kcal/mol]: each site, then its substitutions
K1: A 2.84; D 2.23; E 2.09; F 3.5; G 2.6; H 2.89; I 3.3; L 3.15; M 3.33; N 2.67; P 2.75; Q 2.5; R 2.79; S 2.83; T 3.14; V 3.25; W 3.51; Y 3.44
K2: A 2.46; C 3.4; D 1.93; E 2.06; F 2.8; G 2.2; H 2.46; I 3.41; L 2.84; M 2.83; N 2.48; P 2.2; Q 2.36; R 2.78; S 2.92; T 3.4; V 3.28; W 2.88; Y 2.82
V3: A 1.67; D 1.7; E 1.86; F 2.27; G 1.85; H 1.86; I 2.48; K 1.57; L 2.39; M 2.12; N 1.7; P 2.06; Q 1.59; R 1.95; S 1.46; T 1.76; W 2.29; Y 2.26
T4: A 2.02; C 3.48; D 1.7; E 1.98; F 3.25; G 1.61; H 2.26; I 3; K 2.29; L 2.95; M 2.74; N 2.21; P 1.76; Q 2.17; R 2.18; S 2.38; V 2.94; W 3.01; Y 3.11
I5: A 1.71; C 3.46; D 1.54; E 1.56; F 2.8; G 1.72; H 1.93; K 1.54; L 2.39; M 2.07; N 1.47; P 1.79; Q 1.66; R 1.58; S 1.46; T 1.59; V 2.47; W 2.83; Y 2.71
N6: A 2.41; C 4.2; D 2.25; E 1.91; F 3.23; G 2.5; H 2.45; I 2.41; K 2.17; L 2.87; M 2.65; P 1.57; Q 2.14; R 2.25; S 2.11; T 2.01; V 2.52; W 3.34; Y 2.75
G7: A 1.95; C 3.05; D 1.89; E 1.78; F 2.37; H 1.89; I 2.84; K 2.09; L 2.42; M 2.2; N 2.11; P 2.01; Q 1.96; R 1.87; S 1.85; T 1.98; V 2.45; W 2.54; Y 2.23
V8: A 2.03; C 3.55; D 1.65; E 1.99; F 2.71; G 1.78; H 2.53; I 2.74; K 2.4; L 2.51; M 2.51; N 2; P 1.6; Q 2.25; R 2.56; S 1.97; T 2.24; W 2.75; Y 2.82
E9: A 2.4; C 3.54; D 2.3; F 2.53; G 2.12; H 2.46; I 2.85; K 2.08; L 2.78; M 2.62; N 2.19; P 2.3; Q 2.46; R 2.36; S 2.58; T 2.98; V 2.94
